Measured values: patent US20240254204A1 (NATIONAL UNIVERSITY OF SINGAPORE, published 2024)
Several values for one entry are separate records, joined by “and”; a condition that tells them apart may be missing. Equal values may be shown once.

Key:
Experiment in all cases: cell-based or functional assay
WIV-1 full-length spike = WIV-1 full-length spike (SC1r-CoV WIV-1)
[1] = biological target: SARS-COV-1 full-length spike (SARS-CoV)
[2] = biological target: SARS-COV-2 Wuhan-hu-1 (ancestral) full-length spike (SARS-CoV-2)

Measured: pseudovirus neutralization NT50

B1: Antibody 11 (SS6V11-E7) (antibody, V domains shown)
VH: QVQLQESGPGLVKPSETLSLTCTVSGGFIGPHYWSWVRQPPGKGLEWIGYIYISGSTNYNPSLKSRLTISVDMSKSQFSLTLSSATAADTAVYYCARGGGYLETGPFEYWGQGTLVTVSS
VL: DIVMTQSPLSLPVTPGEPASISCRSSQSLLQNNGYNYLAWYLQKPGQSPQLLIYLSSTRASGVPDRFSGSGSGTDFTLKISRVEAEDVGVYYCMQSLQIPGTFGQGTRLEIK
< 10 ng/ml and < 0.067 nM: WIV-1 full-length spike | [1] | [2]

B2: Antibody 20 (SS6V20-F5) (antibody, V domains shown)
VH: QVQLQESGPGLVKPSETLSLTCTVSGGSIIGYYWSWIRQPPGKGLEWIGYIYFSANTNYNPSLKSRVTMSVDMSKKQFSLKLRSVTAADTAVYYCARGGGYLETGPLDFWGQGILVTVSS
VL: DIVMTQSPLSLPVTPGEPASISCRSSQSLMQLNGYNYLAWYLQRPGQSPQLLIYLGSTRASGVPDRFSGSGSGTDFTLKITRVEAEDVGVYYCMQGLQIPGTFGQGTRLEIK
< 10 ng/ml and < 0.067 nM: WIV-1 full-length spike | [1] | [2]

B3: Antibody 13 (SS6V13-F1) (antibody, V domains shown)
VH: QVQLQESGPGLVKPSETLSLTCSVSGVSILGSYWGWIRQPPGTGLQWIGYIYFSENTNYNPSLQSRVTMSLDTSKNLLSLKLSSVTAADTAVYYCARGGGYLETGPFDSWGQGTLVTVSS
VL: DIVMTQSPLSLPVTPGEPASISCRSSQGLVQSNGYNYLAWYLQKPGQSPQLLIYLGSNRASGVPDRFSGSGSGTDFTLKISRVEAEDVGVYYCMQGLQTPGTFGQGTRLEIK
< 10 ng/ml and < 0.067 nM: WIV-1 full-length spike | [1] | [2]
